Laboratory results: patent publication US20260263521A1 (AIMED BIO, published 2026)

T1: human CD200RLa (Sino Biological, 11620-H08H) recombinant protein (human, UniProt Q6Q8B3 24-239)
T1 construct: Bought; construct not described
T1 sequence (looked up): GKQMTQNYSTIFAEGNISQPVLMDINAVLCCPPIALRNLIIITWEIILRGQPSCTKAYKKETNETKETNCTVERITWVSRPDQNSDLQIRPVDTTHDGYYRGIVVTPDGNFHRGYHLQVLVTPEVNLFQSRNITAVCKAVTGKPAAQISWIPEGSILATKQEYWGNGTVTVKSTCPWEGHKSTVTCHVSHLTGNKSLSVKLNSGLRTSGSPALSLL

T2: human CD200R1 expressed on cells (Jurkat-CD200R1, U937-CD200R1, HH cells) (human, UniProt Q8TD46 25-348)
T2 construct: whole, on cells; also called HH (CRL-2105); cell surface-expressed CD200R1
T2 sequence (looked up): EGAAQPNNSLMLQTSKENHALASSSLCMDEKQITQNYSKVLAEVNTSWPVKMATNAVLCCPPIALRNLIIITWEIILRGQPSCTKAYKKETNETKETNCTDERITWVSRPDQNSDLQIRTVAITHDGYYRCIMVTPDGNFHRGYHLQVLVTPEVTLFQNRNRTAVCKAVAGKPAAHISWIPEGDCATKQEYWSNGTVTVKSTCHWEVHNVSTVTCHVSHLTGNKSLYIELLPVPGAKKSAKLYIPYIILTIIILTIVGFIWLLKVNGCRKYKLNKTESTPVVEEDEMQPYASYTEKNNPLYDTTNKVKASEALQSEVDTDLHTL

T3: mouse CD200R1 protein (R&D systems, 2554-CD) (mouse, UniProt Q9ES57 26-238, limits assumed)
T3 construct: Bought; construct not described
T3 sequence (looked up): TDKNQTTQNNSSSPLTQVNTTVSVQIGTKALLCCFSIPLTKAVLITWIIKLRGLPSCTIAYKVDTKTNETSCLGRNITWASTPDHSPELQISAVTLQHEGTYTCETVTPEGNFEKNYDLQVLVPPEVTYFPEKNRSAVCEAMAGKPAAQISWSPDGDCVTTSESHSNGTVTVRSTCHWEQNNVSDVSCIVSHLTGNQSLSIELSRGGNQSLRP


Experiments:
[1] = target: T1, human CD200RLa (Sino Biological, …); experiment: ELISA, plate-bound human CD200RLa (2 ug/mL), antibody 0.0192-300 nM, O.D 450 nm; panel 'recombinant human CD200RLa'
Method: 96-well plates were coated with human CD200RLa (Sino Biological, 11620-H08H) and monkey CD200RLa (Sino Biological, 11576-C02H) recombinant proteins at a concentration of 2 μg/mL at 4° C. for 16 hours, and blocked with 3% skim milk for 1 hour. […] Color was developed with a TMB substrate solution (Thermo Scientific, 34029, 1-Step™ Ultra TMB-ELISA Substrate Solution). The color reaction was stopped with stop solution (Invitrogen, SS04, ELISA Stop Solution).

[2] = target: T2, human CD200R1 expressed on cells …; experiment: flow cytometry, HH cells; drawn table
[3] = target: T2, human CD200R1 expressed on cells …; experiment: flow cytometry, HH cells; drawn table, row EC50
[4] = target: T3, mouse CD200R1 protein (R&D systems, …); experiment: ELISA, plate-bound mouse CD200R1 (2 ug/mL), IgG 0.0192-300 nM, OD 450 nm; panel 'mouse CD200R1'
Method: 96-well plates were coated with human CD200R1 (R&D systems, 3414-CD) and mouse CD200R1 protein (R&D systems, 2554-CD) at a concentration of 2 μg/mL at 4° C. for 16 hours and then were blocked with 3% skim milk.
Color was developed with a TMB substrate solution (Thermo Scientific, 34029, 1-Step™ TMB-ELISA Ultra Substrate Solution). The color reaction was stopped with stop solution (Invitrogen, SS04, ELISA Stop Solution). The absorbance was measured at an optical density of 450 nm.

Binder	binding result [1]	Geo mean (%) at 0.05 nM [2]	Geo mean (%) at 0.19 nM [2]	Geo mean (%) at 0.78 nM [2]	Geo mean (%) at 3.125 nM [2]	Geo mean (%) at 12.5 nM [2]	Geo mean (%) at 50 nM [2]	Geo mean (%) at 200 nM [2]	Geo mean (%) at 800 nM [2]	EC50 [3]	binding result [4]
P001017 (chimeric OX108) (antibody, V domains shown, also called QX108; murine anti-CD200R1 antibody OX108) VH: EVKLQQSGPELVKPGASVKMSCKASGYTFTSYVMHWVKQKPGQGLEWIGYINPYNDDTNYNEKFKGKATLTSDKSSSTAYMELSSLTSEDSAVYYCAREDYYGSRWGYWGQGTTLTVSS VL: DIVLTQSPASLAVSLGQRATISCRASKSVSTSGYSYMHWYQQKPGQPPKLLIYLASNLESGVPARFSGSGSGTDFTLNIHPVEEEDAATYYCQHSRELLTFGAGTKLELK	no binding (tested: 300 nM)										
P001018 scFv mutant H3-Y102K (scFv) scFv: QVQLVQSGAEVKKPGASVKVSCKASGYTFTSYVMHWVRQAPGQGLEWMGYINPYNDDTNYNEKFKGRVTMTRDTSTSTVYMELSSLRSEDTAVYYCAREDYYGSRWGKWGQGTLVTVSSGGGGSGGGGSGGGGSDIVLTQSPASLAVSPGQRATITCRASKSVSTSGYSYMHWYQQKPGQPPKLLIYLASNLESGVPARFSGSGSGTDFTLTINPVEANDTANYYCQHSRELLTFGQGTKVEIK		2.1%	6.1%	17.1%	35.3%	67%	85.7%	104%	120%	9.79 nM	
P001018 scFv mutant L3-T96R (scFv) scFv: QVQLVQSGAEVKKPGASVKVSCKASGYTFTSYVMHWVRQAPGQGLEWMGYINPYNDDTNYNEKFKGRVTMTRDTSTSTVYMELSSLRSEDTAVYYCAREDYYGSRWGYWGQGTLVTVSSGGGGSGGGGSGGGGSDIVLTQSPASLAVSPGQRATITCRASKSVSTSGYSYMHWYQQKPGQPPKLLIYLASNLESGVPARFSGSGSGTDFTLTINPVEANDTANYYCQHSRELLRFGQGTKVEIK		2.7%	7.5%	19.4%	40.2%	79.5%	91.1%	116%	123%	7.26 nM	
P001018 scFv mutant L3-R92S (scFv) scFv: QVQLVQSGAEVKKPGASVKVSCKASGYTFTSYVMHWVRQAPGQGLEWMGYINPYNDDTNYNEKFKGRVTMTRDTSTSTVYMELSSLRSEDTAVYYCAREDYYGSRWGYWGQGTLVTVSSGGGGSGGGGSGGGGSDIVLTQSPASLAVSPGQRATITCRASKSVSTSGYSYMHWYQQKPGQPPKLLIYLASNLESGVPARFSGSGSGTDFTLTINPVEANDTANYYCQHSSELLTFGQGTKVEIK		1.7%	4.5%	12%	33.9%	73.2%	90.1%	108%	116%	7.76 nM	
P001018 scFv mutant L3-L94S (scFv) scFv: QVQLVQSGAEVKKPGASVKVSCKASGYTFTSYVMHWVRQAPGQGLEWMGYINPYNDDTNYNEKFKGRVTMTRDTSTSTVYMELSSLRSEDTAVYYCAREDYYGSRWGYWGQGTLVTVSSGGGGSGGGGSGGGGSDIVLTQSPASLAVSPGQRATITCRASKSVSTSGYSYMHWYQQKPGQPPKLLIYLASNLESGVPARFSGSGSGTDFTLTINPVEANDTANYYCQHSRESLTFGQGTKVEIK		1.8%	5.9%	17.3%	35.5%	62%	76.6%	98.7%	110%	9.52 nM	
P001018 scFv mutant H3-Y102T (scFv) scFv: QVQLVQSGAEVKKPGASVKVSCKASGYTFTSYVMHWVRQAPGQGLEWMGYINPYNDDTNYNEKFKGRVTMTRDTSTSTVYMELSSLRSEDTAVYYCAREDYYGSRWGTWGQGTLVTVSSGGGGSGGGGSGGGGSDIVLTQSPASLAVSPGQRATITCRASKSVSTSGYSYMHWYQQKPGQPPKLLIYLASNLESGVPARFSGSGSGTDFTLTINPVEANDTANYYCQHSRELLTFGQGTKVEIK		2%	5.8%	15.5%	33.2%	69.7%	91.6%	107%	121%	9.43 nM	
P001018 scFv mutant L3-L95D (scFv) scFv: QVQLVQSGAEVKKPGASVKVSCKASGYTFTSYVMHWVRQAPGQGLEWMGYINPYNDDTNYNEKFKGRVTMTRDTSTSTVYMELSSLRSEDTAVYYCAREDYYGSRWGYWGQGTLVTVSSGGGGSGGGGSGGGGSDIVLTQSPASLAVSPGQRATITCRASKSVSTSGYSYMHWYQQKPGQPPKLLIYLASNLESGVPARFSGSGSGTDFTLTINPVEANDTANYYCQHSRELDTFGQGTKVEIK		2%	5.6%	16.4%	35.6%	73.8%	95.3%	119%	145%	13.1 nM	
P001018 scFv mutant L3-L94H (scFv) scFv: QVQLVQSGAEVKKPGASVKVSCKASGYTFTSYVMHWVRQAPGQGLEWMGYINPYNDDTNYNEKFKGRVTMTRDTSTSTVYMELSSLRSEDTAVYYCAREDYYGSRWGYWGQGTLVTVSSGGGGSGGGGSGGGGSDIVLTQSPASLAVSPGQRATITCRASKSVSTSGYSYMHWYQQKPGQPPKLLIYLASNLESGVPARFSGSGSGTDFTLTINPVEANDTANYYCQHSREHLTFGQGTKVEIK		2.2%	5.6%	18.5%	35.3%	59.1%	75.2%	96.7%	105%	9.4 nM	
P001018 scFv mutant L3-R92H (scFv) scFv: QVQLVQSGAEVKKPGASVKVSCKASGYTFTSYVMHWVRQAPGQGLEWMGYINPYNDDTNYNEKFKGRVTMTRDTSTSTVYMELSSLRSEDTAVYYCAREDYYGSRWGYWGQGTLVTVSSGGGGSGGGGSGGGGSDIVLTQSPASLAVSPGQRATITCRASKSVSTSGYSYMHWYQQKPGQPPKLLIYLASNLESGVPARFSGSGSGTDFTLTINPVEANDTANYYCQHSHELLTFGQGTKVEIK		3.3%	8.7%	19.8%	43.8%	84.1%	100%			6.14 nM	
P001013 (IgG) (antibody, V domains shown) VH: EVQLLESGGGLVQPGGSLRLSCAASGFTFSGYDMSWVRQAPGKGLEWVSGIPPGDGSTYYADSVKGRFTISRDNSKNTLYLQMNSLRAEDTAVYYCAKHLVSDHPPSQYSDDGMDVWGQGTLVTVSS VL: QSVLTQPPSASGTPGQRVTISCSGSSSNIGNNDVNWYQQLPGTAPKLLIYYNSQRPSGVPDRFSGSKSGTSASLAISGLRSEDEADYYCGSWDYSLNGYVFGGGTKLTVL	no binding (tested: 300 nM)										no binding (tested: 300 nM)
